Experiment [1] deals with T1, neurofibromin 2 (full-length, GST-tagged) (Homo sapiens, UniProt P35240, A585W/R588K).
T1 construct: gene NF2; full-length, residues 1-595, N-terminal GST tag kept (pGEX-6P-1), E. coli BL21(DE3) Rosetta2
T1 sequence (P35240 1-595 A585W/R588K): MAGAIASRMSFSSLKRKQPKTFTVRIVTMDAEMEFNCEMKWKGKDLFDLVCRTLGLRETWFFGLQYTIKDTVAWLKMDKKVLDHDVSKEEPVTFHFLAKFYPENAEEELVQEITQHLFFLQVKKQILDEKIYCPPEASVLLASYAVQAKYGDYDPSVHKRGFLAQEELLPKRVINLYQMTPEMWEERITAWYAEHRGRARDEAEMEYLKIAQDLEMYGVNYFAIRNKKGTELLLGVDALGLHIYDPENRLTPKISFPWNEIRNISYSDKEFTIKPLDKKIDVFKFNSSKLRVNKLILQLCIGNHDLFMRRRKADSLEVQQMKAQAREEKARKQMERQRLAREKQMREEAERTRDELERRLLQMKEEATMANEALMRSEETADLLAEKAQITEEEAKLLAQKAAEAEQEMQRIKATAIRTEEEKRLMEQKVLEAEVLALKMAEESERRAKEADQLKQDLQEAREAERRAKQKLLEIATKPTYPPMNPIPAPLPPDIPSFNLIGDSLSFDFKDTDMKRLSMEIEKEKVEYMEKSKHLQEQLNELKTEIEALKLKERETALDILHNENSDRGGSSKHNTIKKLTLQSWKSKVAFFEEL
The experiment is described as follows: microscale thermophoresis. Type of experiment: binding. The settings on record: 20 mM Tris pH 7.5, 300 mM NaCl, 0.01% Tween-20, room temperature; protein labelled with maleimide NT-647. Background: MST reads how a fluorescent partner responds to local heating, with and without ligand.

The target of experiment [2] is neurofibromin 2 tail tail (Homo sapiens) (UniProt P35240). As to conditions: cited from earlier work.
In experiment [3] the target is T2, N terminally GST-tagged full-length neurofibromin 2, wild type (human, UniProt P35240 1-595, labeled with NT-647 red dye (maleimide conjugated cysteine reactive or NHS conjugated lysine reactive)).
T2 construct: neurofibromin 2 (merlin), human, full length, residues 1-595; also called NF2; merlin; source: E. coli BL21(DE3) Rosetta2, purified (GST column); not shown: GST, N-terminal, kept
T2 sequence (looked up): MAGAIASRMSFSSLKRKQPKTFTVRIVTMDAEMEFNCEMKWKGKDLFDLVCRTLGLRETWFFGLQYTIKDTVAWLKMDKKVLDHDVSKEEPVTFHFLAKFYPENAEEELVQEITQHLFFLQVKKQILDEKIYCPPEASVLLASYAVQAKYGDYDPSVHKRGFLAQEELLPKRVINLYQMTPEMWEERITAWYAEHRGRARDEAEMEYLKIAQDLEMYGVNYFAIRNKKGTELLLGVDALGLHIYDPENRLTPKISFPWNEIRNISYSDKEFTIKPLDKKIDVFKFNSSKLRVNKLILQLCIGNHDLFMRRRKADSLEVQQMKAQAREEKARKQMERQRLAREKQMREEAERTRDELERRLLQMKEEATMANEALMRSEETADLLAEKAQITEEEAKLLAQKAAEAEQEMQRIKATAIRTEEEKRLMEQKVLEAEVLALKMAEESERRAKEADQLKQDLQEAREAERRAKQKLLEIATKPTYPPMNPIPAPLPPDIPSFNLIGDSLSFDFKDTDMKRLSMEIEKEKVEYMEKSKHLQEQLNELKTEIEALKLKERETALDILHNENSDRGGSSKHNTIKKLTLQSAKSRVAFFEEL
The experiment is described as follows: MST; as a1, but LATS1 69-100 titrated into the neurofibromin 2/PIP2 complex (in the presence of PIP2). As to conditions: both partners purified.

Experiment [4] addresses T2, N terminally GST-tagged full-length …. The experiment is described as follows: MST; unlabeled LATS1 69-100 (2 mM) titrated into 5 uM NT-647-labeled GST-neurofibromin 2; 20 mM Tris pH 7.5, 300 mM NaCl, 0.01% Tween-20; room temperature. As to conditions: both partners purified.
Experiment [5] has as its target T3, N terminally GST-tagged full-length neurofibromin 2 lipid binding deficient mutant (T59V, W60E, R309Q, R310Q) (human, UniProt P35240 1-595, T59V | W60E | R309Q | R310Q, labeled with NT-647 red dye (maleimide conjugated cysteine reactive or NHS conjugated lysine reactive)).
T3 construct: neurofibromin 2 (merlin), human, full length, residues 1-595, with four point mutations; Cloned into pGEX-6P-1; also called LBD; source: E. coli BL21(DE3) Rosetta2, purified (GST column); not shown: GST, N-terminal, kept
T3 sequence (looked up): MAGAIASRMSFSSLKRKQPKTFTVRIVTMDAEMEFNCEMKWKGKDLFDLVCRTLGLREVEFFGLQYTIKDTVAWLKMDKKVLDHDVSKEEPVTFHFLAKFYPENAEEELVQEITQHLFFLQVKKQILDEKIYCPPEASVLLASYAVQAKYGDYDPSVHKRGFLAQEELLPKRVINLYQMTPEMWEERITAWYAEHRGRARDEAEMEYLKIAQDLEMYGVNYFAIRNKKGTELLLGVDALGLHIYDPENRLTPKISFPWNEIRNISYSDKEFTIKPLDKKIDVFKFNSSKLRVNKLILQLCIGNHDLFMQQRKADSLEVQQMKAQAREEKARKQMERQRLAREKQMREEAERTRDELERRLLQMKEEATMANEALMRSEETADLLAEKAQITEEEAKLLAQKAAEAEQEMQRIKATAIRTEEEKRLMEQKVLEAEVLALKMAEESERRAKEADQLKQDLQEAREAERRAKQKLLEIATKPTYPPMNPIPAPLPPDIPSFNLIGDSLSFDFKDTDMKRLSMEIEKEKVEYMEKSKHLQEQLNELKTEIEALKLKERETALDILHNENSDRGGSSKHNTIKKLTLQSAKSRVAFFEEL
The description is as above. As to conditions: both partners purified.

The values below come from publication PMC5889391, “Lipid binding promotes the open conformation and tumor-suppressive activity of neurofibromin 2” (Nature Communications, 2018).

Take `CCCCCCCC(=O)OC[C@H](COP(=O)(O)O[C@@H]1[C@H](O)[C@H](O)[C@@H](OP(=O)(O)O)[C@H](OP(=O)(O)O)[C@H]1O)OC(=O)CCCCCCC` [PIP2diC8]: the microscale thermophoresis result in experiment [1] is recorded as “No binding was observed for the artificially closed A585W-R588K (AR) mutants to h PIP2”.
The Kd is a measure of binding affinity in units of concentration. As to “neurofibromin 2 head head (from UniProt P35240)”, the Kd in experiment [2] is 3 µM.

B1: LATS1 (residues 69-100) (domain or fragment, UniProt O95835 69-100, looked up)
chain: PKFGTHHKALQEIRNSLLPFANETNSSRSTSE
notes: Hippo pathway kinase LATS1, residues 69-100; it was unlabeled; also called LATS1 kinase; LAST1 residues 69-100
In the case of B1, the figures for the Kd in experiment [3], in experiment [4] and in experiment [5] were 3.77 ± 0.72 µM, 39.3 ± 4.25 µM and 176 ± 34.5 µM, respectively.
